# From the supplement of paper PMC6757056
# ± gives the standard deviation of the averaged measurements.
# B1: library; a variant is named by its letters at N, in order (parent)
# chain: GCUGUCACCGAGAAACUGUGAAGUAUAUCUUAAACCUGGGCACUUAAAAGAUAUAUGGAGUUAGUAGUGCAACCUGCUCGGUCUGAUGAGUCCNNNNNNGGACGAAACAGC
# Experiments:
# cyclic di-GMP [1] = variants of: B1; assay: FACS-Seq fitted mean relative fluorescence mCherry/BFP without ligand (log10 relative fluorescence); HEK293T; ligand: cyclic di-GMP (c-di-GMP-II aptamer); higher = higher reporter protein expression; settings: ligand present: no
# Outline: (§1)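 Fluorescence values are fitted normal means of bin counts along the mCherry/BFP axis. HEK293T libraries lentivirally carrying the ribozyme switch in an mCherry reporter, with an EF1α-BFP marker, were enriched, exposed to ligand or not for 48 h, and sorted into 6 bins. Genomic DNA per bin was PCR-amplified, barcoded and run on MiSeq. Means of log10(mCherry/BFP) were scaled to five spiked-in control ribozymes.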
# cyclic di-GMP [2] = variants of: B1; assay: normalized RNA/DNA level without ligand (relative to sTRSVctl = 100) (log10 (% of sTRSVctl)); HEK293T; ligand: cyclic di-GMP (c-di-GMP-II aptamer); higher = less ribozyme self-cleavage, higher mRNA level; settings: reporter: mCherry (pCS4076), ligand present: no
# Method: (§2)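 Hammerhead (sTRSV) ribozyme switch libraries with a ligand aptamer grafted on stem I and a randomized N4-6 loop II, cloned into the 3' UTR of mCherry and transiently transfected into HEK293T cells; RNA-Seq 72 h post transfection with ligand added 1 h before transfection; RNA read count / plasmid DNA read count normalized to the non-cleaving sTRSVctl (x100), log10; sequences with >100 DNA reads. FACS-Seq: lentiviral library sorted into 6 bins after 48 h ligand, log-normal fit mean of mCherry/BFP scaled to controls. Printed sequences are partial switch sequences.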
# cyclic di-GMP [3] = variants of: B1; assay: FACS-Seq fitted mean relative fluorescence mCherry/BFP with ligand (log10 relative fluorescence); HEK293T; ligand: cyclic di-GMP (c-di-GMP-II aptamer); ligand concentration (+) FACS-Seq: 1 mM; higher = higher reporter protein expression; settings: ligand present: yes
# Outline: as §1
# cyclic di-GMP [4] = variants of: B1; assay: normalized RNA/DNA level with ligand (relative to sTRSVctl = 100) (log10 (% of sTRSVctl)); HEK293T; ligand: cyclic di-GMP (c-di-GMP-II aptamer); ligand concentration (+) RNA-Seq: 1 mM; higher = less ribozyme self-cleavage, higher mRNA level; settings: reporter: mCherry (pCS4076), ligand present: yes
# Method: as §2
Variant,FACS-Seq fitted mean (log10) (cyclic di-GMP [1]),normalized RNA/DNA level without ligand (log10) (cyclic di-GMP [2]),FACS-Seq fitted mean (log10) (cyclic di-GMP [3]),normalized RNA/DNA level with ligand (log10) (cyclic di-GMP [4])
AGACGC,-0.232 ± 0.099,1.65 ± 0.066,-0.0488 ± 0.032,1.81 ± 0.098
CUAAAU,-0.443 ± 0.034,1.5 ± 0.1,-0.0872 ± 0.068,1.69 ± 0.044
CGUUCU,-0.248 ± 0.08,1.51 ± 0.084,0.0758 ± 0.01,1.68 ± 0.068
CGUUCA,-0.111 ± 0.098,1.39 ± 0.12,0.115 ± 0.005,1.59 ± 0.12
GUACAA,-0.163 ± 0.036,1.5 ± 0.065,0.191 ± 0.07,1.68 ± 0.061
UCGGAU,-0.57 ± 0.024,1.43 ± 0.097,-0.239 ± 0.0084,1.68 ± 0.06
ACCCAC,0.134 ± 0.14,1.69 ± 0.029,0.321 ± 0.024,1.84 ± 0.15
AACUGG,-0.198 ± 0.17,1.59 ± 0.049,0.149 ± 0.048,1.77 ± 0.17
CGAUGC,-0.127 ± 0.16,1.722 ± 0.014,0.202 ± 0.062,1.88 ± 0.049
CCUACC,-0.57 ± 0.25,1.757 ± 0.0078,-0.577 ± 0.048,1.85 ± 0.053
ACUUUU,-0.0638 ± 0.052,1.6 ± 0.053,0.272 ± 0.091,1.8 ± 0.095
UAGUUG,0.116 ± 0.21,1.7 ± 0.05,0.29 ± 0.039,1.81 ± 0.082
GAUUGG,-0.22 ± 0.02,1.63 ± 0.02,0.0818 ± 0.059,1.75 ± 0.093
CCAGGC,-1.034 ± 0.0013,1.636 ± 0.0075,-0.924 ± 0.11,1.76 ± 0.15
GAGUUG,-0.0245 ± 0.095,1.8 ± 0.04,0.211 ± 0.021,1.92 ± 0.12
UUUGUA,-0.5429 ± 0.0021,1.708 ± 0.002,-0.268 ± 0.088,1.85 ± 0.13
GAAAGA,-0.392 ± 0.037,1.41 ± 0.11,-0.0161 ± 0.058,1.57 ± 0.11
AUUAUC,-0.473 ± 0.04,1.72 ± 0.062,-0.167 ± 0.081,1.84 ± 0.13
UGUACC,0.263 ± 0.21,1.79 ± 0.068,0.4414 ± 0.00076,1.9 ± 0.13
GUCCUG,-0.102 ± 0.019,1.68 ± 0.022,0.19 ± 0.09,1.83 ± 0.14
GGUAUC,-0.466 ± 0.023,1.63 ± 0.018,-0.193 ± 0.022,1.79 ± 0.12
AUGCCA,-0.283 ± 0.032,1.704 ± 0.0062,0.176 ± 0.089,1.84 ± 0.08
ACGGUU,-0.529 ± 0.031,1.22 ± 0.074,-0.237 ± 0.11,1.4 ± 0.1
CUUAAU,-0.0367 ± 0.24,1.55 ± 0.096,0.142 ± 0.073,1.71 ± 0.1

Variant,FACS-Seq fitted mean (log10) (cyclic di-GMP [1]),normalized RNA/DNA level without ligand (log10) (cyclic di-GMP [2]),FACS-Seq fitted mean (log10) (cyclic di-GMP [3]),normalized RNA/DNA level with ligand (log10) (cyclic di-GMP [4])
ACAGAU,-0.584 ± 0.025,1.39 ± 0.072,-0.289 ± 0.018,1.54 ± 0.096
CGAUAU,-0.508 ± 0.039,1.43 ± 0.1,-0.183 ± 0.014,1.62 ± 0.11
UCCAAA,-0.284 ± 0.0034,1.57 ± 0.076,0.111 ± 0.079,1.75 ± 0.12
CUAAUU,-0.314 ± 0.073,1.537 ± 0.0049,0.0103 ± 0.0086,1.74 ± 0.081
CAAAUA,-0.296 ± 0.0065,1.28 ± 0.11,-0.211 ± 0.2,1.46 ± 0.14
CCCCCA,-0.0821 ± 0.078,1.71 ± 0.046,0.187 ± 0.091,1.83 ± 0.14
UAUAGA,-0.453 ± 0.17,1.65 ± 0.021,-0.265 ± 0.034,1.81 ± 0.15
UAUAGU,-0.943 ± 0.17,1.65 ± 0.03,-0.713 ± 0.099,1.79 ± 0.068
CGGACG,-1.09 ± 0.056,1.77 ± 0.072,-1.17 ± 0.31,1.87 ± 0.11
ACACAG,-0.515 ± 0.016,1.44 ± 0.084,-0.191 ± 0.074,1.68 ± 0.11
GUAGAA,-0.503 ± 0.021,1.39 ± 0.081,-0.1892 ± 0.0011,1.63 ± 0.1
CCUUCA,-0.388 ± 0.025,1.6013 ± 0.00017,-0.00437 ± 0.075,1.72 ± 0.15
CCCUCA,-0.416 ± 0.038,1.58 ± 0.039,-0.195 ± 0.06,1.73 ± 0.17
CAAUCU,-1.02 ± 0.16,1.54 ± 0.069,-0.88 ± 0.038,1.71 ± 0.13
ACGUGA,-0.228 ± 0.016,1.33 ± 0.052,-0.0284 ± 0.061,1.54 ± 0.096
ACGUAU,-0.637 ± 0.067,1.34 ± 0.1,-0.336 ± 0.0036,1.54 ± 0.036
ACGGGA,-0.467 ± 0.019,1.42 ± 0.16,-0.161 ± 0.068,1.58 ± 0.075
ACCAAC,-0.0269 ± 0.12,1.6 ± 0.048,0.111 ± 0.07,1.76 ± 0.085
GUUUGC,-0.138 ± 0.079,1.66 ± 0.043,0.164 ± 0.012,1.79 ± 0.15
ACUAUA,-0.358 ± 0.029,1.53 ± 0.057,0.067 ± 0.087,1.72 ± 0.12
UACCCU,-0.513 ± 0.0088,1.74 ± 0.024,-0.201 ± 0.055,1.87 ± 0.09
ACCACC,-0.899 ± 0.064,1.6 ± 0.088,-0.618 ± 0.019,1.76 ± 0.097
ACUCAG,-0.836 ± 0.044,1.61 ± 0.031,-0.677 ± 0.16,1.77 ± 0.1
UCAUUU,-0.43 ± 0.036,1.637 ± 0.0076,-0.178 ± 0.038,1.78 ± 0.14

Variant,FACS-Seq fitted mean (log10) (cyclic di-GMP [1]),normalized RNA/DNA level without ligand (log10) (cyclic di-GMP [2]),FACS-Seq fitted mean (log10) (cyclic di-GMP [3]),normalized RNA/DNA level with ligand (log10) (cyclic di-GMP [4])
CCAAGU,-0.377 ± 0.06,1.663 ± 0.013,0.0295 ± 0.007,1.82 ± 0.099
UGGAAC,-0.221 ± 0.031,1.64 ± 0.033,0.11 ± 0.0057,1.83 ± 0.075
GCGUCG,-0.555 ± 0.037,1.64 ± 0.037,-0.312 ± 0.016,1.77 ± 0.11
UAUGAA,-0.265 ± 0.024,1.64 ± 0.018,-0.0026 ± 0.016,1.78 ± 0.08
UCUGGU,-0.364 ± 0.019,1.66 ± 0.049,-0.0436 ± 0.031,1.81 ± 0.044
CCUGGC,-0.646 ± 0.017,1.68 ± 0.034,-0.459 ± 0.0093,1.82 ± 0.14
CACAAA,-0.504 ± 0.031,1.24 ± 0.14,-0.278 ± 0.055,1.46 ± 0.12
UGCAUC,-1.13 ± 0.034,1.78 ± 0.026,-0.952 ± 0.082,1.87 ± 0.099
GCUACG,0.0942 ± 0.14,1.58 ± 0.017,0.353 ± 0.045,1.72 ± 0.1
GCGCGA,-0.455 ± 0.074,1.51 ± 0.12,-0.199 ± 0.081,1.65 ± 0.037
AAGUUA,-0.499 ± 0.08,1.529 ± 0.0062,-0.215 ± 0.06,1.74 ± 0.14
CCGGUU,-0.109 ± 0.11,1.592 ± 0.0094,0.264 ± 0.0069,1.78 ± 0.096
CCUCCC,-0.363 ± 0.069,1.81 ± 0.025,-0.153 ± 0.079,1.89 ± 0.12
CUCCUA,-0.0767 ± 0.066,1.44 ± 0.12,0.0398 ± 0.14,1.68 ± 0.14
AAACGG,-0.275 ± 0.019,1.5 ± 0.12,0.0867 ± 0.11,1.7 ± 0.1
UAGGCU,-0.161 ± 0.14,1.75 ± 0.031,0.0436 ± 0.011,1.88 ± 0.11
CUCUAA,-0.433 ± 0.11,1.4 ± 0.083,-0.0646 ± 0.21,1.61 ± 0.033
UAAAUU,0.0621 ± 0.17,1.631 ± 0.016,0.394 ± 0.011,1.77 ± 0.11
CCCCUU,-0.25 ± 0.04,1.65 ± 0.019,0.125 ± 0.14,1.84 ± 0.12
AAGCAC,-0.391 ± 0.077,1.678 ± 0.0034,-0.0705 ± 0.025,1.82 ± 0.11
CGCCUA,-0.608 ± 0.088,1.37 ± 0.12,-0.414 ± 0.049,1.58 ± 0.12
UCAAAA,-0.275 ± 0.04,1.46 ± 0.037,-0.0447 ± 0.01,1.68 ± 0.15
AGGAUC,-0.0729 ± 0.071,1.63 ± 0.023,0.137 ± 0.019,1.78 ± 0.1
CGUUAA,-0.684 ± 0.057,1.22 ± 0.036,-0.425 ± 0.019,1.4 ± 0.14
